{
  "source": "patent US11655308B2",
  "about": "“HM-3 fusion protein and application thereof” (TASLY BIOPHARMACEUTICALS CO., LTD., priority 2017, dated 2023)",
  "test": "Pharmacokinetics after single subcutaneous injection (double-antibody sandwich ELISA)",
  "note": "Where “and” joins values, the source holds several entries; their conditions need not be identical. Identical values can stand only once.",
  "method": "(1) 18 SD rats (half male and half female) were purchased and fed for one week.\n(2) Rats were divided into 3 groups, half male and half female, and weight of rats were recorded respectively.\nThe blood was centrifuged at 12000 rpm/min to take 200 μL of supernatant, then the supernatant was diluted with PBS solution according to a ratio of 1:3, and finally placed in an EP tube and stored in a −80° C. refrigerator.\n(4) Biological samples were measured by double-antibody sandwich ELISA.\n(1) Coating, HM-3 monoclonal antibody was diluted with a coating buffer (CBS) in certain concentration, added to an ELISA plate and coated overnight.\n(2) Plate washing, the coating buffer was discarded, and the plate was washed by PBST for 3 times, and then dried by patting.\n(3) Sealing, a blocking buffer was added for sealing at 37.5° C., the plate washing process was repeated and the plate was dried by patting.\n(4) Addition of samples to be measured, the samples to be measured were added to the ELISA plate with multiple wells, and then incubated at 37.5° C.; the plate washing process was repeated and the plate was dried by patting.\n(5) Addition of a secondary antibody, the secondary antibody diluted proportionally was added for incubation at 37.5° C. The plate washing process was repeated and the plate was dried by patting.\n(6) Addition of the enzyme-labeled secondary antibody for reaction, the HRP-labeled secondary antibody which was diluted by 5% skim milk powder solution according to certain proportion was added for incubation at 37.5° C. The plate washing process was repeated and the plate was dried by patting.\n(7) Addition of a substrate, a TMB substrate in certain volume L was added for reaction in the dark.\n(8) Termination of the reaction, a certain amount of stop buffer was added to terminate the reaction.\n(9) Detection, read OD450 nm with a microplate reader.",
  "data": [
    {"substance": "mIgG4-Fc-(GGGGS)3-HM-3 [TSL-4]", "values": [
      {"measurement": "Plasma concentration", "setting": "4.17 mg/kg sc, 0.00 h, Mean", "result": 0, "unit": "µg/mL"},
      {"measurement": "Plasma concentration", "setting": "4.17 mg/kg sc, 0.00 h, single rats No. 1-5", "result": 0, "unit": "µg/mL"},
      {"measurement": "Plasma concentration", "setting": "4.17 mg/kg sc, 0.50 h, Mean", "result": 0.0818, "unit": "µg/mL"},
      {"measurement": "Plasma concentration", "setting": "4.17 mg/kg sc, 0.50 h, single rats No. 1-5", "result": "0.00626 µg/mL and 0.0985 µg/mL and 0.131 µg/mL and 0.0504 µg/mL and 0.122 µg/mL"},
      {"measurement": "Plasma concentration", "setting": "4.17 mg/kg sc, 1.00 h, Mean", "result": 0.135, "unit": "µg/mL"},
      {"measurement": "Plasma concentration", "setting": "4.17 mg/kg sc, 1.00 h, single rats No. 1-5", "result": "0.0588 µg/mL and 0.162 µg/mL and 0.168 µg/mL and 0.136 µg/mL and 0.151 µg/mL"},
      {"measurement": "Plasma concentration", "setting": "4.17 mg/kg sc, 3.00 h, Mean", "result": 0.388, "unit": "µg/mL"},
      {"measurement": "Plasma concentration", "setting": "4.17 mg/kg sc, 3.00 h, single rats No. 1-5", "result": "0.238 µg/mL and 0.382 µg/mL and 0.412 µg/mL and 0.338 µg/mL and 0.570 µg/mL"},
      {"measurement": "Plasma concentration", "setting": "4.17 mg/kg sc, 5.00 h, Mean", "result": 0.573, "unit": "µg/mL"},
      {"measurement": "Plasma concentration", "setting": "4.17 mg/kg sc, 5.00 h, single rats No. 1-5", "result": "0.667 µg/mL and 0.482 µg/mL and 0.575 µg/mL and 0.374 µg/mL and 0.766 µg/mL"},
      {"measurement": "Plasma concentration", "setting": "4.17 mg/kg sc, 6.00 h, Mean", "result": 0.894, "unit": "µg/mL"},
      {"measurement": "Plasma concentration", "setting": "4.17 mg/kg sc, 6.00 h, single rats No. 1-5", "result": "1.278 µg/mL and 0.699 µg/mL and 1.024 µg/mL and 0.491 µg/mL and 0.978 µg/mL"},
      {"measurement": "Plasma concentration", "setting": "4.17 mg/kg sc, 7.00 h, Mean", "result": 1.297, "unit": "µg/mL"},
      {"measurement": "Plasma concentration", "setting": "4.17 mg/kg sc, 7.00 h, single rats No. 1-5", "result": "1.696 µg/mL and 0.903 µg/mL and 1.556 µg/mL and 0.914 µg/mL and 1.415 µg/mL"},
      {"measurement": "Plasma concentration", "setting": "4.17 mg/kg sc, 8.00 h, Mean", "result": 1.356, "unit": "µg/mL"},
      {"measurement": "Plasma concentration", "setting": "4.17 mg/kg sc, 8.00 h, single rats No. 1-5", "result": "1.383 µg/mL and 1.584 µg/mL and 1.319 µg/mL and 1.407 µg/mL and 1.088 µg/mL"},
      {"measurement": "Plasma concentration", "setting": "4.17 mg/kg sc, 10.00 h, Mean", "result": 1.058, "unit": "µg/mL"},
      {"measurement": "Plasma concentration", "setting": "4.17 mg/kg sc, 10.00 h, single rats No. 1-5", "result": "1.192 µg/mL and 1.305 µg/mL and 0.854 µg/mL and 0.960 µg/mL and 0.980 µg/mL"},
      {"measurement": "Plasma concentration", "setting": "4.17 mg/kg sc, 12.00 h, Mean", "result": 0.771, "unit": "µg/mL"},
      {"measurement": "Plasma concentration", "setting": "4.17 mg/kg sc, 12.00 h, single rats No. 1-5", "result": "0.947 µg/mL and 0.964 µg/mL and 0.712 µg/mL and 0.363 µg/mL and 0.867 µg/mL"},
      {"measurement": "Plasma concentration", "setting": "4.17 mg/kg sc, 16.00 h, Mean", "result": 0.468, "unit": "µg/mL"},
      {"measurement": "Plasma concentration", "setting": "4.17 mg/kg sc, 16.00 h, single rats No. 1-5", "result": "0.767 µg/mL and 0.682 µg/mL and 0.237 µg/mL and 0.183 µg/mL and 0.471 µg/mL"},
      {"measurement": "Plasma concentration", "setting": "4.17 mg/kg sc, 20.00 h, Mean", "result": 0.205, "unit": "µg/mL"},
      {"measurement": "Plasma concentration", "setting": "4.17 mg/kg sc, 20.00 h, single rats No. 1-5", "result": "0.249 μg/mL and 0.252 μg/mL and 0.179 μg/mL and 0.172 μg/mL (2×)"},
      {"measurement": "Plasma concentration", "setting": "4.17 mg/kg sc, 24.00 h, Mean", "result": 0.100, "unit": "µg/mL"},
      {"measurement": "Plasma concentration", "setting": "4.17 mg/kg sc, 24.00 h, single rats No. 1-5", "result": "0.0638 μg/mL and 0.0738 μg/mL and 0.0533 μg/mL and 0.155 μg/mL (2×)"},
      {"measurement": "Plasma concentration", "setting": "4.17 mg/kg sc, 28.00 h, Mean", "result": 0.0667, "unit": "µg/mL"},
      {"measurement": "Plasma concentration", "setting": "4.17 mg/kg sc, 28.00 h, single rats No. 1-5", "result": "0.0454 μg/mL and 0.0406 μg/mL and 0.0381 μg/mL and 0.105 μg/mL (2×)"},
      {"measurement": "Plasma concentration", "setting": "4.17 mg/kg sc, 41.00 h, Mean", "result": 0.0545, "unit": "µg/mL"},
      {"measurement": "Plasma concentration", "setting": "4.17 mg/kg sc, 41.00 h, single rats No. 1-5", "result": "0.0298 μg/mL and 0.0288 μg/mL and 0.0231 μg/mL and 0.0954 μg/mL (2×)"},
      {"measurement": "Plasma concentration", "setting": "4.17 mg/kg sc, 53.00 h, Mean", "result": 0.0366, "unit": "µg/mL"},
      {"measurement": "Plasma concentration", "setting": "4.17 mg/kg sc, 53.00 h, single rats No. 1-5", "result": "0.0108 µg/mL and 0.0074 µg/mL and 0.0171 µg/mL and 0.0669 µg/mL and 0.0809 µg/mL"},
      {"measurement": "Plasma concentration", "setting": "4.17 mg/kg sc, 65.00 h, Mean", "result": 0.0233, "unit": "µg/mL"},
      {"measurement": "Plasma concentration", "setting": "4.17 mg/kg sc, 65.00 h, single rats No. 1-5", "result": "0.008536 µg/mL and 0.003139 µg/mL and 0.0168 µg/mL and 0.0440 µg/mL and 0.044 µg/mL"},
      {"measurement": "Plasma concentration", "setting": "4.17 mg/kg sc, 77.00 h, Mean", "result": 0.0114, "unit": "µg/mL"},
      {"measurement": "Plasma concentration", "setting": "4.17 mg/kg sc, 77.00 h, single rats No. 1-5", "result": "0.005846 µg/mL and 0.002666 µg/mL and 0.0125 µg/mL and 0.0181 µg/mL and 0.01811 µg/mL"},
      {"measurement": "AUC 0-77", "setting": "4.17 mg/kg single sc", "result": 7055.774, "unit": "ng·h/mL"},
      {"measurement": "AUC 0-∞", "setting": "4.17 mg/kg single sc", "result": "9006.668 ± 3859.519", "unit": "ng·h/mL"},
      {"measurement": "MRT 0-77", "setting": "4.17 mg/kg single sc", "result": 14.880, "unit": "h"},
      {"measurement": "MRT 0-∞", "setting": "4.17 mg/kg single sc", "result": 17.330, "unit": "h"},
      {"measurement": "Tmax", "setting": "4.17 mg/kg single sc", "result": "7.4 ± 0.55", "unit": "h"},
      {"measurement": "ka", "setting": "4.17 mg/kg single sc", "result": 0.258},
      {"measurement": "t½ka (absorption half-life)", "setting": "4.17 mg/kg single sc", "result": 2.265, "unit": "h"},
      {"measurement": "t½ke (elimination half-life)", "setting": "4.17 mg/kg single sc", "result": "30.710 ± 3.100", "unit": "h"},
      {"measurement": "α, ke", "setting": "4.17 mg/kg single sc", "result": 0.090},
      {"measurement": "Plasma concentration", "setting": "12.5 mg/kg sc, 0.50 h, Mean", "result": 0.848, "unit": "µg/mL"},
      {"measurement": "Plasma concentration", "setting": "12.5 mg/kg sc, 0.50 h, single rats No. 1-5", "result": "0.176 µg/mL and 0.741 µg/mL and 0.995 µg/mL and 0.598 µg/mL and 1.728 µg/mL"},
      {"measurement": "Plasma concentration", "setting": "12.5 mg/kg sc, 1.00 h, Mean", "result": 1.877, "unit": "µg/mL"},
      {"measurement": "Plasma concentration", "setting": "12.5 mg/kg sc, 1.00 h, single rats No. 1-5", "result": "0.740 µg/mL and 1.435 µg/mL and 1.875 µg/mL and 1.153 µg/mL and 4.180 µg/mL"},
      {"measurement": "Plasma concentration", "setting": "12.5 mg/kg sc, 3.00 h, Mean", "result": 4.078, "unit": "µg/mL"},
      {"measurement": "Plasma concentration", "setting": "12.5 mg/kg sc, 3.00 h, single rats No. 1-5", "result": "1.459 µg/mL and 2.970 µg/mL and 4.100 µg/mL and 2.070 µg/mL and 9.793 µg/mL"},
      {"measurement": "Plasma concentration", "setting": "12.5 mg/kg sc, 5.00 h, Mean", "result": 7.518, "unit": "µg/mL"},
      {"measurement": "Plasma concentration", "setting": "12.5 mg/kg sc, 5.00 h, single rats No. 1-5", "result": "2.030 µg/mL and 5.512 µg/mL and 8.329 µg/mL and 6.748 µg/mL and 14.973 µg/mL"},
      {"measurement": "Plasma concentration", "setting": "12.5 mg/kg sc, 6.00 h, Mean", "result": 9.970, "unit": "µg/mL"},
      {"measurement": "Plasma concentration", "setting": "12.5 mg/kg sc, 6.00 h, single rats No. 1-5", "result": "2.337 µg/mL and 7.869 µg/mL and 11.753 µg/mL and 9.720 µg/mL and 18.172 µg/mL"},
      {"measurement": "Plasma concentration", "setting": "12.5 mg/kg sc, 7.00 h, Mean", "result": 13.413, "unit": "µg/mL"},
      {"measurement": "Plasma concentration", "setting": "12.5 mg/kg sc, 7.00 h, single rats No. 1-5", "result": "3.372 µg/mL and 8.202 µg/mL and 11.959 µg/mL and 7.582 µg/mL and 35.951 µg/mL"},
      {"measurement": "Plasma concentration", "setting": "12.5 mg/kg sc, 8.00 h, Mean", "result": 10.626, "unit": "µg/mL"},
      {"measurement": "Plasma concentration", "setting": "12.5 mg/kg sc, 8.00 h, single rats No. 1-5", "result": "4.395 µg/mL and 6.684 µg/mL and 10.711 µg/mL and 6.343 µg/mL and 24.998 µg/mL"},
      {"measurement": "Plasma concentration", "setting": "12.5 mg/kg sc, 10.00 h, Mean", "result": 8.284, "unit": "µg/mL"},
      {"measurement": "Plasma concentration", "setting": "12.5 mg/kg sc, 10.00 h, single rats No. 1-5", "result": "3.014 µg/mL and 5.271 µg/mL and 9.706 µg/mL and 6.000 µg/mL and 17.430 µg/mL"},
      {"measurement": "Plasma concentration", "setting": "12.5 mg/kg sc, 12.00 h, Mean", "result": 7.390, "unit": "µg/mL"},
      {"measurement": "Plasma concentration", "setting": "12.5 mg/kg sc, 12.00 h, single rats No. 1-5", "result": "2.663 µg/mL and 4.448 µg/mL and 7.496 µg/mL and 5.562 µg/mL and 16.780 µg/mL"},
      {"measurement": "Plasma concentration", "setting": "12.5 mg/kg sc, 16.00 h, Mean", "result": 6.292, "unit": "µg/mL"},
      {"measurement": "Plasma concentration", "setting": "12.5 mg/kg sc, 16.00 h, single rats No. 1-5", "result": "2.587 µg/mL and 3.719 µg/mL and 6.053 µg/mL and 4.976 µg/mL and 14.124 µg/mL"},
      {"measurement": "Plasma concentration", "setting": "12.5 mg/kg sc, 20.00 h, Mean", "result": 5.407, "unit": "µg/mL"}
    ]}
  ]
}
